± gives the uncertainty stated by the source.

The data set can be described thus: abundance fitness (aPCA) (normalised: wild type 0, dead -1); higher = more abundant; growth selection in yeast, the domain comes from the species named. The settings on record: Homo sapiens.
Regarding “Scaffold attachment factor B1 D67G, Q15424”, the abundance fitness was -0.131 ± 0.046.

For “Scaffold attachment factor B1 D67H, Q15424”, the abundance fitness is -0.333 ± 0.051.

For the substance “Scaffold attachment factor B1 D67I, Q15424”, the abundance fitness was -0.257 ± 0.079.

For the substance “Scaffold attachment factor B1 D67K, Q15424”, the abundance fitness was -0.258 ± 0.091.

“Scaffold attachment factor B1 D67L, Q15424”: the abundance fitness was -0.278 ± 0.052.

“Scaffold attachment factor B1 D67M, Q15424”: the abundance fitness is -0.167 ± 0.1.

“Scaffold attachment factor B1 D67N, Q15424” returned an abundance fitness of -0.125 ± 0.091.

Regarding “Scaffold attachment factor B1 D67Q, Q15424”, the abundance fitness is -0.123 ± 0.077.

For “Scaffold attachment factor B1 D67R, Q15424”, the abundance fitness was -0.168 ± 0.049.

On to “Scaffold attachment factor B1 D67T, Q15424”, for which the abundance fitness was -0.237 ± 0.071.

The substance “Scaffold attachment factor B1 D67V, Q15424” had an abundance fitness of -0.19 ± 0.063.

With “Scaffold attachment factor B1 D67W, Q15424”, the abundance fitness was -0.474 ± 0.048.

“Scaffold attachment factor B1 D67Y, Q15424” registered an abundance fitness of -0.263 ± 0.13.

“Scaffold attachment factor B1 D73A, Q15424” gave an abundance fitness of -0.196 ± 0.065.

In the case of “Scaffold attachment factor B1 D73C, Q15424”, the abundance fitness is -0.206 ± 0.059.

In the case of “Scaffold attachment factor B1 D73E, Q15424”, the abundance fitness was -0.072 ± 0.067.

Substance “Scaffold attachment factor B1 D73F, Q15424” displayed an abundance fitness of -0.494 ± 0.085.

“Scaffold attachment factor B1 D73G, Q15424” showed an abundance fitness of -0.124 ± 0.049.

In turn, “Scaffold attachment factor B1 D73H, Q15424” gave an abundance fitness of -0.443 ± 0.098.

Substance “Scaffold attachment factor B1 D73K, Q15424” gave an abundance fitness of -0.652 ± 0.12.

For “Scaffold attachment factor B1 D73L, Q15424”, the abundance fitness was -0.245 ± 0.059.

Take “Scaffold attachment factor B1 D73M, Q15424”: the abundance fitness is -0.468 ± 0.1.

Take “Scaffold attachment factor B1 D73N, Q15424”: the abundance fitness was -0.091 ± 0.097.

In the case of “Scaffold attachment factor B1 D73P, Q15424”, the abundance fitness is -0.278 ± 0.068.

For “Scaffold attachment factor B1 D73Q, Q15424”, the abundance fitness is -0.362 ± 0.11.

As for “Scaffold attachment factor B1 D73R, Q15424”, the abundance fitness is -0.288 ± 0.056.

As for “Scaffold attachment factor B1 D73S, Q15424”, the abundance fitness was -0.243 ± 0.061.

“Scaffold attachment factor B1 D73T, Q15424” had an abundance fitness of -0.231 ± 0.056.

“Scaffold attachment factor B1 D73V, Q15424” displayed an abundance fitness of -0.23 ± 0.053.

Substance “Scaffold attachment factor B1 D73W, Q15424” registered an abundance fitness of -0.513 ± 0.056.

Substance “Scaffold attachment factor B1 D73Y, Q15424” gave an abundance fitness of -0.375 ± 0.073.

Regarding “Scaffold attachment factor B1 E42C, Q15424”, the abundance fitness was -0.346 ± 0.063.

“Scaffold attachment factor B1 E42D, Q15424”: the abundance fitness is -0.881 ± 0.099.

In the case of “Scaffold attachment factor B1 E42F, Q15424”, the abundance fitness is -0.587 ± 0.076.

“Scaffold attachment factor B1 E42H, Q15424” displayed an abundance fitness of -0.686 ± 0.12.

“Scaffold attachment factor B1 E42I, Q15424” gave an abundance fitness of -0.422 ± 0.057.

On to “Scaffold attachment factor B1 E42K, Q15424”, for which the abundance fitness is -0.852 ± 0.1.

“Scaffold attachment factor B1 E42L, Q15424”: the abundance fitness is -0.188 ± 0.061.

Substance “Scaffold attachment factor B1 E42M, Q15424” yielded an abundance fitness of -0.15 ± 0.074.

In the case of “Scaffold attachment factor B1 E42N, Q15424”, the abundance fitness was -0.736 ± 0.11.

With “Scaffold attachment factor B1 E42P, Q15424”, the abundance fitness is -0.976 ± 0.18.

“Scaffold attachment factor B1 E42Q, Q15424” had an abundance fitness of -0.26 ± 0.083.

For “Scaffold attachment factor B1 E42R, Q15424”, the abundance fitness is -0.903 ± 0.053.

The substance “Scaffold attachment factor B1 E42S, Q15424” registered an abundance fitness of -0.605 ± 0.056.

“Scaffold attachment factor B1 E42T, Q15424” registered an abundance fitness of -0.776 ± 0.076.

“Scaffold attachment factor B1 E42V, Q15424” came in with an abundance fitness of -0.53 ± 0.053.

Consider “Scaffold attachment factor B1 E42Y, Q15424”, for which the abundance fitness is -0.619 ± 0.1.

In turn, “Scaffold attachment factor B1 E59D, Q15424” registered an abundance fitness of -0.15 ± 0.074.

In turn, “Scaffold attachment factor B1 E59F, Q15424” showed an abundance fitness of -0.637 ± 0.071.

For “Scaffold attachment factor B1 E59G, Q15424”, the abundance fitness is -0.153 ± 0.076.

As to “Scaffold attachment factor B1 E59H, Q15424”, the abundance fitness is -0.087 ± 0.063.

As to “Scaffold attachment factor B1 E59I, Q15424”, the abundance fitness is -0.071 ± 0.067.

Take “Scaffold attachment factor B1 E59K, Q15424”: the abundance fitness is -0.152 ± 0.084.

In turn, “Scaffold attachment factor B1 E59L, Q15424” yielded an abundance fitness of -0.15 ± 0.052.

Take “Scaffold attachment factor B1 E59M, Q15424”: the abundance fitness was -0.131 ± 0.064.

On to “Scaffold attachment factor B1 E59N, Q15424”, for which the abundance fitness is -0.131 ± 0.065.

As to “Scaffold attachment factor B1 E59Q, Q15424”, the abundance fitness was -0.19 ± 0.096.

Substance “Scaffold attachment factor B1 E59R, Q15424” gave an abundance fitness of -0.078 ± 0.074.

Substance “Scaffold attachment factor B1 E59S, Q15424” came in with an abundance fitness of -0.111 ± 0.051.

For the substance “Scaffold attachment factor B1 E59T, Q15424”, the abundance fitness was -0.082 ± 0.053.

In turn, “Scaffold attachment factor B1 E59V, Q15424” returned an abundance fitness of -0.125 ± 0.046.

In the case of “Scaffold attachment factor B1 E59W, Q15424”, the abundance fitness was -0.408 ± 0.11.

“Scaffold attachment factor B1 E59Y, Q15424” displayed an abundance fitness of -0.343 ± 0.095.

For “Scaffold attachment factor B1 E66C, Q15424”, the abundance fitness was -0.284 ± 0.069.

In turn, “Scaffold attachment factor B1 E66F, Q15424” gave an abundance fitness of -0.256 ± 0.061.

In turn, “Scaffold attachment factor B1 E66G, Q15424” yielded an abundance fitness of -0.218 ± 0.052.

With “Scaffold attachment factor B1 E66H, Q15424”, the abundance fitness was -0.49 ± 0.075.

As to “Scaffold attachment factor B1 E66I, Q15424”, the abundance fitness was -0.261 ± 0.058.

Substance “Scaffold attachment factor B1 E66K, Q15424” yielded an abundance fitness of -0.169 ± 0.082.

The record behind these values is the Human Domainome abundance scans (Beltran et al. 2025).
